{
  "source": "the nanobody polyreactivity screen of Harvey et al. (2022)",
  "data": [
    {"assay": "yeast display, Sf9 membrane polyspecificity reagent, FACS + sequencing; frameworks hold sequencing errors", "how_it_was_run": "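Galactose induction of a Saccharomyces cerevisiae BJ5465 synthetic nanobody display library ran 36–48 hours. The cells were then stained for 1 hour at 4 °C with 10% biotinylated, detergent-solubilized Sf9 membrane reagent, pulled down on streptavidin microbeads and FACS-sorted into low and high (top ~1%) gates on expression and reagent-binding fluorescence. Labels for polyreactivity follow the gate of origin.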", "values": [
      {"sequence": "QVQLVESGGGLVQAGGSLRLSCAASGNIRNYGMGCSRQAPGKERELVDAISSGGVRTYYADSVKGRFTLSRDNAKNTVYLQMNSLKPEETAVYYCAVASWYYLYPPGYRAITHDYWGQGTQVTVSS", "polyreactivity (PSR sort gate)": "high polyreactivity"},
      {"sequence": "QVQLVESGGGLVQAGGSLRLSCAASGRTFDSYAMGWYRQAPGKERELVAAIYADSVKGRFTISRDNAKNTVYLQMNSLKPEDTAVYYCAARDPSRHARRAYDYWGQGTQVTVSS", "polyreactivity (PSR sort gate)": "low polyreactivity"},
      {"sequence": "QVQLEESGGGLVQAGGSLRLSCAASGSIFIRNAMGWYRQAPGKERELVAAISTIGGRTYYADSVKGRFTISRDNAKNTVYLQMNSQKPEDTAVYYCAAEQGTPSTNWFDYWGQGTQVTVSS", "polyreactivity (PSR sort gate)": "low polyreactivity"},
      {"sequence": "QVQLVDSAGGLVQAGGSLSLSCAASGITFVSKVMGWYRQAPGKEREFVAAITGRGDSTYADSVKGRFTNSRDNAKNCVYLQMNSLKPEDTAVYYCAAEYSVPYRGWDGYEYWGQGTQVTVSS", "polyreactivity (PSR sort gate)": "low polyreactivity"},
      {"sequence": "QVQLVESGGGLVQAGGSLRLSCAASGSIFDYYTMGWYRQAPGKERELVAVIDNSGGSTYYADSVKGRFTISRDNAKNTVYLQMNSLKPEDTAVYYCARRFYNYVSYSNGGATLYDYWGQGTQVTVSS", "polyreactivity (PSR sort gate)": "high polyreactivity"},
      {"sequence": "QVQLVESGGGLVQAGGSLRLSCAASGSTFVFNAMGWYRPAPGKERELVAAISSTGSTYYADSVKGRFTISRDNAKNTVYLQMNSLKPEDTAVYYCAAPYGFSYKGATYDSWGQGTQVTVSS", "polyreactivity (PSR sort gate)": "high polyreactivity"},
      {"sequence": "QVQLVESGGGLVQAGGSLRLSCAASGSNFASYSMGWYRQSPGKERELVAAITDSGGSTYYADSVKGRLTSSRENGKNTVYLQMNSLKPEDTAVYYCAAYGPYFSYHDYVYWGQGTQVTVSS", "polyreactivity (PSR sort gate)": "low polyreactivity"},
      {"sequence": "QVQLVESGGGLVQAGGSLRLSCAASGYIFFGNAMGWYRQAPGKERELVAAIRWRGTSTYYADSVKGRFTISRDNAKNTVYLQMNSLKPEDTAVYYCARLRTVGGYSKYDYWGQGSQVTVSS", "polyreactivity (PSR sort gate)": "low polyreactivity"},
      {"sequence": "QVQIVESGGGLVQAGGSIRLSCAASGYTFVIYAMGSYRPAPGKERELVAAITTIGGRTYYADSVKGRFTISRDNAKNTVYLQMNSLKPEDTAVYYCAADIRSNRLYDGGYWGQGTQVTVSS", "polyreactivity (PSR sort gate)": "low polyreactivity"},
      {"sequence": "QVQLVESGGGLVQAGGSLRLSCAASGRIFYRNAMGWYRQAPGKERELVAAISGSGGSTYYADSVKGRFTISRDNAKNTVYLQMNSLKPEDTAVYYCNVDRSPTHIVGYGYWGQGTQVTVSS", "polyreactivity (PSR sort gate)": "low polyreactivity"},
      {"sequence": "QVQLVESGGGLVQAGGSLRLSCAASGRIFSGYAMGWDRQAPGKERELVAAISSTGGTYYADSVKGRFTISRDNAKNTVYLQMNSLKPEDTAVYYCAADTYGYQGSAGGHWGQGTQVTVSS", "polyreactivity (PSR sort gate)": "low polyreactivity"},
      {"sequence": "QVQLVESGGGLVQAGGSLRLSCAASGYIFVWYAMGWSRQAPGKERELVATISGGGGTYYADSVKGRFTISRDNAKNNVYFQMNSLNPEDTAVYYCNKGVGWTEASPYSPEYDYWGQGTQVSVSS", "polyreactivity (PSR sort gate)": "low polyreactivity"},
      {"sequence": "QVQLVESGGGLVQAGGSLRLSCAASGSIFYWYAMGWYRQAPGKERELVAVISSGGSTYYADSVKGRFTISRDNAKNTVYLQMNSLKPEDTAVYYCNAGPLRSGRYTYYYWGQGTQVTVSS", "polyreactivity (PSR sort gate)": "low polyreactivity"},
      {"sequence": "QVQLVESGGGLVQAGGSLRLSCAASGNTFAQYGMGWYRQAPGKEREFVAAITRRGGSTYYADSVKGRFTISRDNAKNTVYLQMNSLKPEDTAVFYCAAGHYRRRYPSYGLQEYDYWGQGTQVTVSS", "polyreactivity (PSR sort gate)": "high polyreactivity"},
      {"sequence": "QVQLVESGGGLVQAGGSLRLSCAASGRNFAWYAMGWYRQAPGKEREFVAAITYRAARTYYADSVKGRFTISRDNAKNTVYLQMNSLKPEDTAVYYCNAVGFDQPRYYYWGQGTQVTVSS", "polyreactivity (PSR sort gate)": "high polyreactivity"},
      {"sequence": "QVQLVESGGGLVQAGGSLRLSCAASGSTYRANAMGWYRQAPVKERELFASITNSGSSTYYADSVKGRFTISRDNAKNTVYLQMNSLKPEDTAVYYCNAERTIAGYYYWGQGTQVTVSS", "polyreactivity (PSR sort gate)": "low polyreactivity"},
      {"sequence": "QVQLVESGGGLVQAGGRLRLSCAASGSTFYLNAMGWYRQAPGKERELVAAISSGGRTYYADSVKGRFTISRDNAKNTVYLQMTSLKPEDTAVYYCNAVRYLRGAYNYWGQGTQVTVSS", "polyreactivity (PSR sort gate)": "high polyreactivity"},
      {"sequence": "QVQLVETGGGLVQAGGSLRLSCAASGRIFPFYAMGWYRQAPGKERELVAAISWNGGSTFYADSVKGRFTISRDNAKNTVYLQMHSLKPEDTAVYYCNADFRPAYTYDYWGQGTQVTVSS", "polyreactivity (PSR sort gate)": "low polyreactivity"},
      {"sequence": "QVQLVESGGGLVQAGGSLRLSCAASGRIFAPYDMGWYRQAPGKERELVAAISRSGGSTYYADSVKGRFTISRDNAKNSVYFQLNSLKPEDTAVYYCAASYPGRYWLYRYEYWGQGTQVTVSS", "polyreactivity (PSR sort gate)": "high polyreactivity"},
      {"sequence": "QVQLVESGGGLVQAGGSLRLSCAASGNIFDEYTMGWYRQAPGKEREFVAGISDDGDTSYADSVKGRFTISRDNAKNTVYLQMNSLKPEDTAVYYCNADDLSYYESYWGFLYDYWGQGTQVTVSS", "polyreactivity (PSR sort gate)": "low polyreactivity"},
      {"sequence": "QVQLVESGGGLVQAGGSLRLSCAASGFIFNYYVMGWYRQAPGKERELVATISWRGGRTYYADSVKGRFTISRDNAKNTVYLQMKSLKPEDTAVFYCAKESYYFTRYDYWGQGTQVTVSS", "polyreactivity (PSR sort gate)": "low polyreactivity"},
      {"sequence": "QVQLVESGGGLVHAGGSLRLSCAASGSIFTVNAMGWYRQAPGKERELVAAIDGSSGSTNYADSEKGRFTISRDNAKNTVYLQMNSLKPEDTAVYYCAADWSYEYGYWGQGTQVTVSS", "polyreactivity (PSR sort gate)": "low polyreactivity"},
      {"sequence": "QVQLVESGGRLVQAGGILRLSCAASGSTFSPYAKGRNRQAPGKERELVAGITSSGGDTYYADSVKGRFTISRDNAKNTVYLLMNSLKPEDTAVYYCAADWWVLGQLWFDYWGHGTQVTVSS", "polyreactivity (PSR sort gate)": "low polyreactivity"},
      {"sequence": "QVQLVESGGGLVQAGGSLRLSCAASGSTFYFYAKGWYRQAPGRELEWVAAISYSGGSTYYADSVKGRFTISRDNAKNTVYLQMNSLTPEDTAVYSCAADAAFYYDADDEYDYWGQGTQVTVSS", "polyreactivity (PSR sort gate)": "low polyreactivity"},
      {"sequence": "QVQLVESGGGLVQAGGSLLLICADSGITFYGNAMGWYRQAPGKERELVAAISSSGGTTYYADSVKGRFTISRDNAKNTVYLQMNSLKPEDTAVYYCNAVDGIHPYASPSFQQYDYWGQGTQVTVSS", "polyreactivity (PSR sort gate)": "low polyreactivity"},
      {"sequence": "QVQLVESGGGLVQAGGSLRLSCAASGSNLYPYAMGWYRQAPGKERELVAAISRGGSTNYADSVKGRYTIARDNAKNTVYLQMNSLKPDDTAVYYCATAYTRFSQRYEYYVIYWQNDYWGQGTQVTVSS", "polyreactivity (PSR sort gate)": "low polyreactivity"},
      {"sequence": "QVQRVESRGGLVKSGGSLRLSSASSGSTFRWYAMGWYRQAPGKERELVARINTRGGGTYYADSVKGRFTISRDNAKNTVYLQMNSLKPEDTAVYYCAAYSSWSGGLGGDYYWGQGTQVTVSS", "polyreactivity (PSR sort gate)": "low polyreactivity"},
      {"sequence": "QVQLVESGGGLVQAGGSLRLSCAASGRTSVRYAMGWYRQAPGKERELVAAISWSGGSTYYADSVKGRFTISRDNAKNTVYLQMNSLKPEDTAVYDCNAQHARGYYYWGQGTQVTVSS", "polyreactivity (PSR sort gate)": "low polyreactivity"},
      {"sequence": "QVQLVESGGGLVQAGGSLRLSCAASGRIFPVYTMGWYRQAPGKERELVAAISGNGASTYYADSVKGRFTISRDNAKNTVYFHMNRLKPEYTAVYYCAAYFYYWGSTFVRYEYWGQGTQVTVSS", "polyreactivity (PSR sort gate)": "high polyreactivity"},
      {"sequence": "QVQLVESGGGLVQAGGSLRLSCAASGSTFDGNAMGWYRQAPGKERELVAAISYSGGRTYYADSVKGRFTISRDNAKNTVYLQMNSLKPEDTAVYYCATVRPKYSASSYLAYSIFRYGYWGQGTQVTVSS", "polyreactivity (PSR sort gate)": "high polyreactivity"},
      {"sequence": "QVQLVESGGGLVQAGGSLRLSCDASGSTFRHYAMGWYRQAPGKERELVAAISSTGGSTYYADSVKGRFTISRDNAKNTVYLQMNSLKPEDTAVSYCAARRLYWGQGTQVTVSS", "polyreactivity (PSR sort gate)": "high polyreactivity"},
      {"sequence": "QVQLVESGGGLVHAGGSLRLSCAASGFTFYRNTMGWYRQAPGKERELVAAISTRAGSTYYADSVKGRFTISRDNAKNTVYLQMNSLKPEDTAVYYCAVLTYRGRFEYWGQGTQVTVSS", "polyreactivity (PSR sort gate)": "high polyreactivity"},
      {"sequence": "QVQLVESGGGLVQAGGSLRLSCAASGRIFPSYAMGWYRHAPGKERELVAAITSSDSTYNADSVKGRFTISRDNAKNTVYFQMNSLKPEDTAVYYCAAAYSYSGWWWFDYWGQGTQVTVSS", "polyreactivity (PSR sort gate)": "high polyreactivity"},
      {"sequence": "QIQLVESGGGLVQAGSSLRLSCAASGRTFNTYAMGGYRPAPGNERELVAAITYNGGSTYYADSVKGRFTISRDNAKTTVYLQMNSLKPEYTAVYDCNVRLRTRYRKYDYWGQGTQVTVSS", "polyreactivity (PSR sort gate)": "high polyreactivity"},
      {"sequence": "QVQLVESGGGLVQAGGSLRLSCAASGSTFTWYGMGWYRQAPGKETELVAAISGSGGRTYYADSVKGRFTISRDNAKNTVYFQMNSLKPEDTAVYYCNADPANPFGTEFEYWGQGTQVTVSS", "polyreactivity (PSR sort gate)": "high polyreactivity"},
      {"sequence": "QVQLVESGGRLVQAGGSLRLSCAASGRTIGLNGMGWYRQAPGTERELVAGISWSGGSTNYADSVKGRFTISRDNAKNTVYLQMNSLKPEDTAVYYCAADFVYYVVNDFGWSYAYEYWGQGTQVTVSS", "polyreactivity (PSR sort gate)": "low polyreactivity"},
      {"sequence": "QVQLVESGGGLVQAGGSLRLSCDSSGSIFYYYAMGWYRQAPGKERELVAAISRRGGSTYYADSVKVRFTISRDNAKNTVYLQMNSLKPVDTAVYYCAADSPRGYDYWGQCTQVTVSS", "polyreactivity (PSR sort gate)": "high polyreactivity"},
      {"sequence": "QVQLVESGGGLVQAGGSLRLSCAASGFIFVKYAMGWYRQAPGKERELVAAISWSGGTTYYSDSVKGRFTISRDNAKNTVYLKMNSLKPEDTAVYYCAAEYYTGYFKYDYWGQGTQVTVSS", "polyreactivity (PSR sort gate)": "high polyreactivity"},
      {"sequence": "QVQLVESGGGLVQAGGSLRLSCAPSGSIFSWYAMGWYRQAPGKERELVAAIDDDDSTNYADSVKGRFTISRDNAKNTVYLQMNSQKPEDTAVYYCNTRSRPYWYIYRPGDYWGQGTQVTVSS", "polyreactivity (PSR sort gate)": "low polyreactivity"},
      {"sequence": "QVHLEESGGGLVQAGGSLRLSCAASGFTFGPYAMGWYRQAPGKERELDATIRSGDSTNYADSVKGRFTISRDNAKNTVYLQMNSLKPEDTAVYYCARDARASARRKRYDYWGQGTQVTVSS", "polyreactivity (PSR sort gate)": "low polyreactivity"},
      {"sequence": "QVQLVESGGGLVQAGGSLRLSCAASGRTFDRYAMGWYRQAPGKERELVAAISRGGITYYADSVKERFTISRDNAKNTVYLQMNSLKPEDTAVYYCNAVRWADGDYWGQGTQVTVSS", "polyreactivity (PSR sort gate)": "high polyreactivity"},
      {"sequence": "QVQLVESGGGLVQAGGSLRLSCAASGFIFGFYAMGWYRQAPGKERELVAAISSSGGSTYYADSVKGRFTISRDTAKNTGYLQMNSLKPEDTAVYYCAAYFYYLDDAVTYDYWGQGTQVTVSS", "polyreactivity (PSR sort gate)": "low polyreactivity"},
      {"sequence": "QVQLVESGGGLVQAGGSLRLSCPDSGLIFVANAMGWYIQAPGKERELVAAISRSGGITYYADSVKGRFTISRDNATNTVYLKMNSLKPADTEVYYCAKTLPSNGHYDYWGQGTQVTVSS", "polyreactivity (PSR sort gate)": "low polyreactivity"}
    ]}
  ]
}
